Results as given in paper PMC10592106 (Molecular cell, 2023).
Ends that are not written are not given here.

Biological target: T1, FLAG-FBXL12-FL (full length) (human, UniProt Q9NXK8 1-326)
T1 sequence (looked up): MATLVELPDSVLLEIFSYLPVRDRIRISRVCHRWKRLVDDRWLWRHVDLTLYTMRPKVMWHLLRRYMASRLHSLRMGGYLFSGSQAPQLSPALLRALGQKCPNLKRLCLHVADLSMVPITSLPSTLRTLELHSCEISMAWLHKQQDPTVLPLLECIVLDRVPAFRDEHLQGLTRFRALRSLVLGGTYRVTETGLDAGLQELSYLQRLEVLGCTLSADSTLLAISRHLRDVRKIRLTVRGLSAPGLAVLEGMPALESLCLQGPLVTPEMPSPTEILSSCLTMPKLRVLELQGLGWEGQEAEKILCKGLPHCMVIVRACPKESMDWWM
Assay: pull-down

binding result: binds
B1: FANCD2 N-terminal peptide WT, phosphorylated by CHK1 (peptide)
peptide: MVSKRRLSKSEDKE
modifications: also: phosphorylated by CHK1, residues not given here
